Results taken from patent US20220281936A1.

Target: IL12 receptor on pre-activated mouse CD8+ T cells (mouse) (UniProt Q60837)
Assay: cell-based or functional assay

IL12 receptor on pre-activated mouse CD8+ T cells (mouse), sequence (Q60837 20-738, chain 1 of 2): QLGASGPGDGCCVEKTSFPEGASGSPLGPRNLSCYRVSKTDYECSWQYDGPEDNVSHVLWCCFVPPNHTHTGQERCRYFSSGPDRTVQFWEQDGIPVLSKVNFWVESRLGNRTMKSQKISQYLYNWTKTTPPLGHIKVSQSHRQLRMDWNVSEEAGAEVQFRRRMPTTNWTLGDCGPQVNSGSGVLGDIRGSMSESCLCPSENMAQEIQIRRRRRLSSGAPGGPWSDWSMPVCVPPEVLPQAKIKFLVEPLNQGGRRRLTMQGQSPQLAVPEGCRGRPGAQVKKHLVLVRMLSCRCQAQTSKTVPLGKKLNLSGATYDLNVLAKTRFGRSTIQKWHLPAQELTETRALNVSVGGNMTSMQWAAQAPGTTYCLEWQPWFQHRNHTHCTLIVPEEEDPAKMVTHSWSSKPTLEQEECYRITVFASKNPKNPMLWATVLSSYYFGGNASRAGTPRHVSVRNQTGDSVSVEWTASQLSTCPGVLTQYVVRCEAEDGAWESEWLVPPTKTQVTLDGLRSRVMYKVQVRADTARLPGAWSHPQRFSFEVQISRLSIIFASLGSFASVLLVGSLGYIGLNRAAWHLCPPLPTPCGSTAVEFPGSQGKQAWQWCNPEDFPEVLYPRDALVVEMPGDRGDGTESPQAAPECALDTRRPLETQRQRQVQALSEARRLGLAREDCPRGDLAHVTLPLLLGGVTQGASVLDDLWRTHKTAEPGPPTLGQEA
IL12 receptor on pre-activated mouse CD8+ T cells (mouse), sequence (chain, as listed by the source, chain 2 of 2): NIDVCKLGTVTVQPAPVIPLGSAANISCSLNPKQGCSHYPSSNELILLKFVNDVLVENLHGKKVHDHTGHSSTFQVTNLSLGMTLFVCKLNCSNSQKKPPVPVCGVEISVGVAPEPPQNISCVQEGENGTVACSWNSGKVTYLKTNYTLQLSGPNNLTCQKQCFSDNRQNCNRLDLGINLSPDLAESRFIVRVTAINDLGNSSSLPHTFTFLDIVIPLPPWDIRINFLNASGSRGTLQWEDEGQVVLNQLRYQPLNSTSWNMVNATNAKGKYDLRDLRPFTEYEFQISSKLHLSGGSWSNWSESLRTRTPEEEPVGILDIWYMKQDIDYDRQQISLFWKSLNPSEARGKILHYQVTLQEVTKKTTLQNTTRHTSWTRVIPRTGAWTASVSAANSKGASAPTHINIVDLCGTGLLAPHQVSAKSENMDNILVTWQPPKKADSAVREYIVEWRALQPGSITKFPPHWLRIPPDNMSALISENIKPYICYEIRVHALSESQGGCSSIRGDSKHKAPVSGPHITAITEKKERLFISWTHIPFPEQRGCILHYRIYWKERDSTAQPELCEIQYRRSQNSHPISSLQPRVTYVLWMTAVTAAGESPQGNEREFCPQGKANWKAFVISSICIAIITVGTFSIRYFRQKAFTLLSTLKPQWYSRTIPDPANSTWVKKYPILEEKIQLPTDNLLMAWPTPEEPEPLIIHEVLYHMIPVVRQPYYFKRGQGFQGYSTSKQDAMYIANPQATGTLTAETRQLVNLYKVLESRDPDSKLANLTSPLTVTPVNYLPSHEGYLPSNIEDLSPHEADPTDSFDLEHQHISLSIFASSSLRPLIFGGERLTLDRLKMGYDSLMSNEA

IL12Rβ1-(G3S)11-IL12 gave an EC50 of STAT4 phosphorylation in pre-activated mouse CD8+ T cells, fold against unmodified IL12 of 80 fold.
